Article PMC11403483

Experiments:
[1] = target: recombinant PSG1 (pregnancy-specific glycoprotein 1) (human) (UniProt P11464); test: SPR
[2] = target: recombinant murine Psg23-myc-His (mouse); test: BLI

Chain of recombinant PSG1 (pregnancy-specific glycoprotein 1) (human) (P11464 35-419): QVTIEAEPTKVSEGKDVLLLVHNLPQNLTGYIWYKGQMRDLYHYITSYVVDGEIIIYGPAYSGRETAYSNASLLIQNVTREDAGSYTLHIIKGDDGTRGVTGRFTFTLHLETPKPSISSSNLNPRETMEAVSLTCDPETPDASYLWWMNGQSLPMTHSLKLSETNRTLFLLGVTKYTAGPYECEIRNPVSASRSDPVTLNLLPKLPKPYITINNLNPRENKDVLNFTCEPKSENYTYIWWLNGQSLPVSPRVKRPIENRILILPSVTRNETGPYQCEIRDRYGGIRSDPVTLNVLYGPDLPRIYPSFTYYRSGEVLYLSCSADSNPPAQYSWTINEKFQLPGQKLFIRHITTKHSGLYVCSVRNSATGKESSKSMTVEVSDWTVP
Chain of recombinant mouse galectin 9 (O08573 whole entry): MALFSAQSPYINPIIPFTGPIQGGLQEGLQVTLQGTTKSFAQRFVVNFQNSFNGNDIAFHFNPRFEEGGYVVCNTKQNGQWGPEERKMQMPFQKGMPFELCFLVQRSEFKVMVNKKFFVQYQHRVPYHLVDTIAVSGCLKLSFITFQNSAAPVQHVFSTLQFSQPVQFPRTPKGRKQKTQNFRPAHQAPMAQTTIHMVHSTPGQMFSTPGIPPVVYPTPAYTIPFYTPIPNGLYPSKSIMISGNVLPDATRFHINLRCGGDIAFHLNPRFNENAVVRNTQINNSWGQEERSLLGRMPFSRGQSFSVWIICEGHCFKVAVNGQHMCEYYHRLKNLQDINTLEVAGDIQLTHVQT

| Substance | Kd [1] [µM] | koff [1] [s⁻¹] | Kd [2] [µM] | koff [2] [s⁻¹] | kon [2] [M⁻¹ s⁻¹] |
| --- | --- | --- | --- | --- | --- |
| GAL-9 C-terminal carbohydrate recognition domain (domain or fragment) | 1.7 | 0.00415 | – | – | – |
| GAL-9 N-terminal carbohydrate recognition domain (domain or fragment) | 5780 | 0.0106 | – | – | – |
| recombinant mouse galectin 9 (from UniProt O08573 1-353) (natural protein) | – | – | 0.00228 | 0.00635 | 2.79e+06 |
